Tested on: Hmp1 (Ustilago maydis)
Assay: competition

G/C homoduplex 50-mer
binding signal (4-fold more homoduplex needed than C/T competitor, exact homoduplex pair not stated): 4 fold

cruciform DNA 61-mer
binding signal (cruciform more effective competitor than C/T mismatch): 7.5 fold

G/A mismatch 50-mer
binding signal (equal to C/T competitor at 75 nM): 1 fold

Reference: patent US6232095
